Experimental data reported in publication PMC4491177, “Co-translational capturing of nascent ribosomal proteins by their dedicated chaperones” (Nature Communications, 2015).

Experiments:
[1] = biological target: CtSqt1.52C (WD-repeat β-propeller domain of ctSqt1); experiment: isothermal titration calorimetry (ITC), C. thermophilum; type: binding, Chaetomium thermophilum
Experimental: ITC experiments were performed on a MicroCal ITC 2000 instrument (GE Healthcare). The following peptides, corresponding to the N-terminal 19 (without N-terminal methionine) or 20 amino acids of S. cerevisiae and C. thermophilum Rpl10, were synthesized with a free acid group at the C terminus (peptides&elephants): Rpl10(1–20) NH2-[…]-COOH, Rpl10(2–20) NH2-[…]-COOH, ctRpl10(1–20) NH2-[…]-COOH and ctRpl10(2–20) NH2-[…]-COOH. Peptides (1 mg each) were dissolved in the appropriate volume of gel-filtration buffer (20 mM HEPES–NaOH (pH 7.5), 200 mM NaCl, 20 mM KCl and 20 mM MgCl2), which was used for the purification of ScSqt1.53C and ctSqt1.52C, to obtain 1 mM stock solutions. Concentrations of proteins were determined by measuring the A280 using a NanoDrop Lite spectrophotometer (Thermo Scientific). For determination of the C. thermophilum Sqt1/L10-N binding, 200 μl of ctSqt1.52C (10 μM) was added to the sample cell and 2 μl of 100 μM solutions of the peptides was titrated in at 25 °C. For determination of the S. cerevisiae Sqt1/L10-N binding, 200 μl of ScSqt1.53C (100 μM) was added to the sample cell and 2 μl of 1 mM solutions of the peptides were titrated in at 15 °C. ITC data were processed using the Origin ITC Software (OriginLab) and thermodynamic parameters were obtained by fitting the data to a One Set of Sites binding model.

Sqt1-Flag = experiment: in vitro binding assay, Ni-affinity co-purification of Sqt1-Flag; parameters: species or system S. cerevisiae; conditions: co-expression in E. coli, C-terminally (His)6-tagged Rpl10, Ni-affinity, SDS–PAGE and western blot
Experimental: For in vitro binding assays between Rpl10-(His)6 and Sqt1-Flag or between ctRpl10-(His)6 and ctSqt1, proteins were co-expressed from pETDuet-1 (Novagen) in Rosetta(DE3) (Novagen) or BL21(DE3) (Novagen) E. coli cells, respectively. Cells were grown in 200 ml of lysogeny broth medium and protein expression was induced at an OD600 of ∼0.6–0.8 by the addition of isopropyl-β-D-thiogalactoside to a final concentration of 0.5 mM. After 5 h of growth at 30 °C, cells were harvested and stored at −80 °C. Cells were resuspended in 25 ml lysis buffer (50 mM Tris-HCl (pH 7.5), 200 mM NaCl, 1.5 mM MgCl2 and 5% glycerol) and lysed with a M-110L Microfluidizer (Microfluidics). The lysate (30 ml volume) was adjusted by the addition of 300 μl 10% NP-40 to 0.1% NP-40 (note that from here onwards all buffers contained 0.1% NP-40). An aliquot of 100 μl of total extract (sample T) was taken and mixed with 100 μl of 6 × loading buffer. The total extract was then centrifuged at 4 °C for 20 min at 14,000 r.p.m. The soluble extract was transferred to a 50-ml Falcon tube and, as above, an aliquot of 100 μl of soluble extract (sample S) was taken and mixed with 100 μl of 6 × loading buffer. The insoluble pellet fraction (sample P) was resuspended in 3 ml of lysis buffer, and 10 μl thereof were mixed with 90 μl of lysis buffer and 100 μl of 6 × loading buffer. […]

[2] = soluble expression in E. coli; type: physicochemical; conditions: data not shown for Rpl10
Rpl10 = experiment: Y2H interaction with Rpl10; type: binding, S. cerevisiae; conditions: Sqt1 variants; PJ69-4A, HIS3 and ADE2 reporters, 3 days at 30 °C
Experimental: For Y2H interaction assays, plasmids expressing bait proteins, fused to the Gal4 DNA-binding domain (G4BD), and prey proteins, fused to the Gal4 activation domain (G4AD), were co-transformed into reporter strain PJ69-4A. Y2H interactions were documented by spotting representative transformants in 10-fold serial dilution steps onto SC-Trp-Leu, SC-Trp-Leu-His (HIS3 reporter) and SC-Trp-Leu-Ade (ADE2 reporter) plates, which were incubated for 3 days at 30 °C. Growth on SC-Trp-Leu-His plates is indicative of a weak/moderate interaction, whereas only relatively strong interactions permit growth on SC-Trp-Leu-Ade plates.

[3] = biological target: T1, Rpl5 (endogenous, nascent) (S. cerevisiae (endogenous in yeast cells)) (UniProt P26321)
T1 sequence: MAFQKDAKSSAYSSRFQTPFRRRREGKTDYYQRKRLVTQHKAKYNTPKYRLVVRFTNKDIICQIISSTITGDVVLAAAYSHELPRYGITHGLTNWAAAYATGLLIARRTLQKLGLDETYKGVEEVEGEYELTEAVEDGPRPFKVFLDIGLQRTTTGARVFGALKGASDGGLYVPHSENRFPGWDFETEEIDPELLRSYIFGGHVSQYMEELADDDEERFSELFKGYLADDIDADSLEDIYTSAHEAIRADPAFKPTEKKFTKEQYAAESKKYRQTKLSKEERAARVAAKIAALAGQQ

[4] = biological target: T2, Rps3 (endogenous, nascent) (S. cerevisiae (endogenous in yeast cells)) (UniProt P05750)
T2 sequence: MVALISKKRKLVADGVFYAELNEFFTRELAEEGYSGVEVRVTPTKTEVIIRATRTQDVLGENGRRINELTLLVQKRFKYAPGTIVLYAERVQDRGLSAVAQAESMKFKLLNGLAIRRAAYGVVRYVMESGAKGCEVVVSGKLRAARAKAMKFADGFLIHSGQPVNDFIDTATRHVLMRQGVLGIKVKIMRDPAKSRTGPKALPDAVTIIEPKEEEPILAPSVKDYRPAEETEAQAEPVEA

In the case of “H-MARRPARCYRYCKNKPYPKS-OH (cysteine pairing not given here) [CtL10-N(1-20), N-terminal 20 amino acids of C. thermophilum Rpl10]”, the Kd ([1]; 10 μM ctSqt1.52C in cell, 2 μl of 100 μM peptide titrated, 25 °C, 20 mM HEPES–NaOH (pH 7.5), 200 mM NaCl, 20 mM KCl, 20 mM MgCl2, One Set of Sites, read-out: dissociation constant (Kd)) is reported as ~442 nM and the “effect of Met1 on the interaction” value ([1]; ctSqt1) is reported as “did not abolish the interaction completely”.

B1: Rpl10-(His)6: C-terminally (His)6-tagged Rpl10 (protein)
chain: MARRPARCYRYQKNKPYPKSRYNRAVPDSKIRIYDLGKKKATVDEFPLCVHLVSNELEQLSSEALEAARICANKYMTTVSGRDAFHLRVRVHPFHVLRINKMLSCAGADRLQQGMRGAWGKPHGLAARVDIGQIIFSVRTKDSNKDVVVEGLRRARYKFPGQQKIILSKKWGFTNLDRPEYLKKREAGEVKDDGAFVKFLSKKGSLENNIREFPEYFAAQA
modifications: left off: (His)6, C-terminal, kept
notes: C-terminally (His)6-tagged Rpl10
For B1, the “co-purification with / interaction with Sqt1” value (Sqt1-Flag) was “efficient co-purification of Sqt1-Flag”.

B2: full-length Rpl10: full-length ribosomal protein Rpl10 (protein)
chain: MARRPARCYRYQKNKPYPKSRYNRAVPDSKIRIYDLGKKKATVDEFPLCVHLVSNELEQLSSEALEAARICANKYMTTVSGRDAFHLRVRVHPFHVLRINKMLSCAGADRLQQGMRGAWGKPHGLAARVDIGQIIFSVRTKDSNKDVVVEGLRRARYKFPGQQKIILSKKWGFTNLDRPEYLKKREAGEVKDDGAFVKFLSKKGSLENNIREFPEYFAAQA
modifications: left off: Gal4 DNA-binding domain or Gal4 activation domain (which of the two is not stated), end not stated, kept
For B2, the “soluble expression in E. coli” value [2] was “expressed as an insoluble protein”.

B3: Sqt1 (53C construct): WD-repeat β-propeller domain of Sqt1; deletion of amino acids 1–52 (protein)
chain: MSNNSLTYFDKHTDSVFAIGHHPNLPLVCTGGGDNLAHLWTSHSQPPKFAGTLTGYGESVISCSFTSEGGFLVTADMSGKVLVHMGQKGGAQWKLASQMQEVEEIVWLKTHPTIARTFAFGATDGSVWCYQINEQDGSLEQLMSGFVHQQDCSMGEFINTDKGENTLELVTCSLDSTIVAWNCFTGQQLFKITQAEIKGLEAPWISLSLAPETLTKGNSGVVACGSNNGLLAVINCNNGGAILHLSTVIELKPEQDELDASIESISWSSKFSLMAIGLVCGEILLYDTSAWRVRHKFVLEDSVTKLMFDNDDLFASCINGKVYQFNARTGQEKFVCVGHNMGVLDFILLHPVANTGTEQKRKVITAGDEGVSLVFEVPN
For B3, the “Y2H interaction with Rpl10” value (Rpl10) was “sufficient to mediate the interaction both with full-length or the N-terminal residues”.

B4: Syo1-FTpA (natural protein)
chain: MGRSKKRSRASSSRLNPLRKAGSNDNNKDTNVVNKKLQPLLQNLSSVVPNDRSIALSSISVLCEDAHMRQLLLKEKLVPIILNKLLNDSNSDIVVESFGLLRNLSLEEGYDVSIYLWRSDIWTSITSNFGRIVESLSALQAAEQQPQLKPAGKSKIESKRLLFDFADNLLSLVVALSNGSDDILNEILTESKINEIFQVISQLLKYGVEKLPINLFNTTLDLIYDLSSESFEFIDHVSNNELLSQFLNGLSPALHPQANELTKVLIEGIHCQFLDMKITYDQCNKMIHSVCHSINNIDPVQLVNDINNPVEIGPATSKDESSKVITKIKDYNAKRNESMIKLQSIEIAIDLITAIIEIVASKYESPESQEVAIPEELINTLTNFLPHVFMILKDTFTSRILIGWNNLIWLFVSLSLTELSGELLTTLWSYVTQLDSQDDLSIKIGRMGCIWALLKLIFPDGAFESENRALINVQMLNNSGFARGIIEEFQNNNDLELQQKCINVLSTYAMIQGQIDANKEIGQFFIQTLTQLNVRPEILIEMTNSLFQIYGDASYDYNEPIFVRGGFLSILKDQVVPNLRQQFKMVDKNKNPELKERCHDCFTTLDSFIHYKMNENSTNQ
For B4, the enrichment of the RPL5 mRNA in the Syo1-FTpA purification (IgG-sepharose pull-down from cycloheximide-treated cells, TEV eluate, real-time qRT–PCR) [3] was 100 fold.

B5: Yar1-TAP (natural protein)
chain: MGLHSEPLDQEDQDTIILDARAGDLDSLKDIFTTLVSPELLSTCKESESDSTALHMAAANGHIETVRYILETVSRANSAEDLKAFVNEVNKTGNTALHWASLNGKLDVVKLLCDEYEADPFIRNKFGHDAIFEAENSGKEEVETYFLKKYDVEPEDDEEDTQTEGKNSVQITKGTEIEQVTKEATEALREETEKLNINKD
In the case of B5, the enrichment of the RPS3 mRNA in the Yar1-TAP purification (IgG-sepharose pull-down from cycloheximide-treated cells, TEV eluate, real-time qRT–PCR) [4] is reported as 100 fold.

B6: Sqt1 Glu315 to lysine: Sqt1 variant, Glu315 mutated to lysine (protein, UniProt P35184 1-431, looked up, variant E315K)
Ribosome assembly protein SQT1: MEPQEEFITTEEVEQEIVPTVEVEQDVPVDIEGENDDDDEMMNDDEEALEVDMSNNSLTYFDKHTDSVFAIGHHPNLPLVCTGGGDNLAHLWTSHSQPPKFAGTLTGYGESVISCSFTSEGGFLVTADMSGKVLVHMGQKGGAQWKLASQMQEVEEIVWLKTHPTIARTFAFGATDGSVWCYQINEQDGSLEQLMSGFVHQQDCSMGEFINTDKGENTLELVTCSLDSTIVAWNCFTGQQLFKITQAEIKGLEAPWISLSLAPETLTKGNSGVVACGSNNGLLAVINCNNGGAILHLSTVIELKPEQDELDASIKSISWSSKFSLMAIGLVCGEILLYDTSAWRVRHKFVLEDSVTKLMFDNDDLFASCINGKVYQFNARTGQEKFVCVGHNMGVLDFILLHPVANTGTEQKRKVITAGDEGVSLVFEVPN
For B6, the “Y2H interaction with Rpl10” value (Rpl10) was “abolished the interaction between Sqt1 and Rpl10”.
